Experimental data taken from US20160130302A1.
Positions of bridges follow the written chain, without caps; N, C: chain ends. Chains are numbered I, II in the order given. No end group written: not given here.

How the values were obtained:
[1] = tested on: ψPDK-Cs-sC-TAT (ψPDK linked to TAT47-57 by a disulfide bond)
[2] = target: rat δPKC (endogenous, in perfused rat hearts) (rat) (UniProt P09215); test: cell-based or functional assay
[3] = tested on: T1, ψPDK peptide (ALSTER), non-TAT conjugated
T1 sequence: ALSTER

[4] = target: rat δPKC (endogenous, in perfused rat hearts) (rat), P09215; test: cell-based or functional assay
Sequence of rat δPKC (endogenous, in perfused rat hearts) (rat), P09215 (P09215 whole entry, stated change not applied, the tested form may be a part): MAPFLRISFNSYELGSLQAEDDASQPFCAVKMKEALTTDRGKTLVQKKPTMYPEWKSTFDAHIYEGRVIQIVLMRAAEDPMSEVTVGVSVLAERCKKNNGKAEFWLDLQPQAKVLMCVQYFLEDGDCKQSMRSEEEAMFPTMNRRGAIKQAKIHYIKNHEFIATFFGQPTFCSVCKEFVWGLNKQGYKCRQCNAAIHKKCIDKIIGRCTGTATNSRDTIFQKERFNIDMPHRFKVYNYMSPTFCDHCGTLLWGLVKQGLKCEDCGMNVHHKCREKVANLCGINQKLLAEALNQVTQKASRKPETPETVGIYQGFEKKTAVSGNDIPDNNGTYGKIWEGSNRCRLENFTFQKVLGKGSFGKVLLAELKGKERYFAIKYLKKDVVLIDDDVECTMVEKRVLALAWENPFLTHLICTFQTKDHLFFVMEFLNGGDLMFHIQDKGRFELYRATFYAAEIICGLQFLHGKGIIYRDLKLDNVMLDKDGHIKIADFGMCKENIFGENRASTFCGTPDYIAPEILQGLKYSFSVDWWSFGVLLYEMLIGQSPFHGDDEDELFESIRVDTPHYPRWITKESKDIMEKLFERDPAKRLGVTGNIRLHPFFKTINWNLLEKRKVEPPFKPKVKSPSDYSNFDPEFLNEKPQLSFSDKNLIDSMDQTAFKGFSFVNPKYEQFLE

Sequence of rat δPKC (endogenous, in perfused rat hearts) (rat) (P09215 whole entry, stated change not applied, the tested form may be a part): as above

## rat δPKC (endogenous, in perfused rat hearts)
[1]
  I/R-induced MARCKS phosphorylation in hearts: an increase in I/R-induced MARCKS phosphorylation was observed in the presence of ψPDK, as compared with control peptide
  phosphorylation of PDK2 and of the E1 subunit of PDH after I/R (2-D IEF): the phosphorylation of those two enzymes (shown by a shift to acidic pH by 2-D IEF analysis) did not occur in the presence of either ψPDK or in the presence of δV1-1

## p198 (ALS(p)TER), TAT-conjugated (peptide)
[2]
  CPK (u/L): 1170 u/L
  p-JNK/total JNK: 0.9

## p193 (ALATER), TAT-conjugated (peptide)
[2]
  CPK (u/L): 1160 u/L
  p-JNK/total JNK: 0.7

## p196 (ALSTEA), TAT-conjugated (peptide)
[2]
  CPK (u/L): 926 u/L
  p-JNK/total JNK: 0.9

## mouse δPKC (endogenous, in fibroblasts from wild-type mice)
[1]
  MARCKS phosphorylation in wild-type fibroblasts: increased MARCKS phosphorylation relative to the control peptide

## p192 (AASTER), TAT-conjugated (peptide)
[2]
  CPK (u/L): 1270 u/L
  p-JNK/total JNK: 0.7

## p194 (ALSAER), TAT-conjugated (peptide)
[2]
  CPK (u/L): 886 u/L
  p-JNK/total JNK: 0.6

## p195 (ALSTAR), TAT-conjugated (peptide)
[2]
  CPK (u/L): 913 u/L
  p-JNK/total JNK: 0.7

## human recombinant δPKC (Invitrogen)
[3]
  in vitro phosphorylation of Drp1 by δPKC: ψPDK did not affect Drp1 phosphorylation
  δPKC phosphorylation of PDK (in vitro kinase assay): ψPDK inhibited δPKC phosphorylation of PDK by ˜30%

## p197 (ALST(p)ER), TAT-conjugated (peptide)
[2]
  CPK (u/L): 803 u/L
  p-JNK/total JNK: 0.7

## p199 (ALS(p)T(p)ER), TAT-conjugated (peptide)
[2]
  CPK (u/L): 842 u/L
  p-JNK/total JNK: 0.6

B1: ψPDK-Cs-sC-TAT (ψPDK linked to TAT47-57 by a disulfide bond) (peptide)
peptide: ALSTERC-NH2
chain: YGRKKRRQRRRC-NH2
modifications: disulfide I:7-II:12; N-terminus assumed
SMILES: CC(C)C[C@H](NC(=O)[C@H](C)N)C(=O)N[C@@H](CO)C(=O)N[C@H](C(=O)N[C@@H](CCC(=O)O)C(=O)N[C@@H](CCCNC(=N)N)C(=O)N[C@@H](CSSC[C@H](NC(=O)[C@H](CCCNC(=N)N)NC(=O)[C@H](CCCNC(=N)N)NC(=O)[C@H](CCCNC(=N)N)NC(=O)[C@H](CCC(N)=O)NC(=O)[C@H](CCCNC(=N)N)NC(=O)[C@H](CCCNC(=N)N)NC(=O)[C@H](CCCCN)NC(=O)[C@H](CCCCN)NC(=O)[C@H](CCCNC(=N)N)NC(=O)CNC(=O)[C@@H](N)Cc1ccc(O)cc1)C(N)=O)C(N)=O)[C@@H](C)O
[4]
  CPK (u/L): 335 u/L
  p-JNK/total JNK: 0.4
  δPKC association with the mitochondria after I/R: 2 fold
